Measured values reported in patent publication US20110135643A1 (BETH ISRAEL DEACONESS MEDICAL CENTER, published 2011).

Target: T1, human HLA-A2.1 (HLA-A*0201) class I molecule on the surface of T2 cells (human)
T1 construct: whole, on cells; The b2m chain is added because surface class I carries it
Experiment: MHC stabilization and dissociation assay on T2 cells, BB7.2 staining, flow cytometry
Procedure: Briefly, T2 cells were cultured for 6 hours in serum-free IMDM (ATCC) prior to the addition of candidate peptides at a concentration of 50 μg/250×10³ cells/ml and incubated overnight at 37° C. […] Cells were then washed three times with PBS and analyzed by flow cytometry. […] The relative binding affinity of a given peptide was calculated as MFI_{(peptide)}/MFI_{(negative peptide)}.
T2 cells were incubated overnight with 50 μg/ml of each candidate peptide at 37° C. in serum-free Iscove's Modified Dulbecco's Medium (IMDM). Cells were then incubated with Brefeldin A (Sigma, St. Louis, Mo.) at 10 μg/ml for 1 hour, washed, and incubated at 37° C. for 0, 2, 4 or 6 hours in the presence of Brefeldin A (50 ng/ml). Cells were then stained with BB7.2 mAb. For each time point, peptide-induced HLA-A2.1 expression was calculated as the difference of the mean fluorescence of peptide-loaded T2 cells and mean fluorescence of negative peptide-loaded T2 cells. The rate of dissociation is reflected by the loss of A2.1 expression over time.

Row | Binder | binding result
1 | SLDLKLIFL (9-mer peptide of SIM2) [SIM2(237)] | binds
2 | FLDSRVTEV (9-mer peptide of SIM2) [SIM2(244)] | binds
3 | TLDGFVFVV (9-mer peptide of SIM2) [SIM2(87)] | binds

The remaining lines, values ahead:

Row | binding result | Binder
4 | binds | YQIVGLVAV (9-mer peptide of SIM2) [SIM2(205)]
5 | binds | KLIFLDSRV (9-mer peptide of SIM2) [SIM2(241)]
